Results published in article PMC2758704, “Human Papillomavirus-16 E7 Interacts with Glutathione S-Transferase P1 and Enhances Its Role in Cell Survival” (PLoS ONE, 2009).
Ends that are not written are not given here.

B1: HPV-16 E7 12-mer peptide aa 49–60 (peptide)
peptide: RAHYNIVTFCCK
modifications: cysteine pairing not given here; also: bound to a polypropylene rod
notes: residues 49-60 of the E7 oncoprotein of HPV-16; also called peptide 49–60; the 49–60 12-mer; source: synthetic peptide, on polypropylene rods (PepSets, Mimotopes)
B2: HPV-16 E7 C-terminal 12-mer peptide (30th rod, amino acids 88–99 with an added Gly) (peptide)
peptide: GIVCPICSQKPG
modifications: cysteine pairing not given here; also: bound to a polypropylene rod
notes: residues 88-98 (the C-terminus) of the E7 oncoprotein of HPV-16; a Gly added to the last C-terminal HPV-16 E7 amino acid to complete the 12-mer; The text names the region aa 89–98 in one place and 88–98 in others; also called C-terminal 88–98 peptide; C-terminal portion (aa 89–98); source: synthetic peptide, on polypropylene rods (PepSets, Mimotopes)

Target: T1, N-6His-GSTP1 recombinant protein (human, UniProt P09211 1-210)
T1 construct: human GSTP1, ORF made by RT-PCR from HaCaT RNA, cloned through pDONR201 into pDEST17; The printed forward primer begins at the codons for Pro-Pro-Tyr-Thr (residue 2, without the first Met) and the reverse primer holds the stop codon; Gateway attB1 linker residues lie between the His tag and GSTP1; also called recombinant GSTP1; not shown: His6, N-terminal, kept
T1 sequence (P09211 whole entry): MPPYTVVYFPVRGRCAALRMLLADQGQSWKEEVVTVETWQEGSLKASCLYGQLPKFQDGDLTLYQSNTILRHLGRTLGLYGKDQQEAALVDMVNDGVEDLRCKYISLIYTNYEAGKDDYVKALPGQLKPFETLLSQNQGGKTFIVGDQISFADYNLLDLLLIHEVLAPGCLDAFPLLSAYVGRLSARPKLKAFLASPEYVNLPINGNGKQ
Test: peptide or protein array; PepSets: 30 rod-bound 12-mers of HPV-16 E7 with a 9 amino acid overlap; recombinant GSTP1 captured by each rod detected by an immunoenzyme assay with an anti-GSTP1 polyclonal antibody
Conditions: both partners purified

Binder | binding result
B1 | binds
B2 | binds
